The results in this text go back to US20240018269A1.

For test [1], the target named is recombinant soluble FcγRIIb (human) (UniProt P31994). Briefly: BLI (Octet); anti-TNP IgG captured on TNP-BSA-biotin, rsFcγR in solution; global 1:1 Langmuir fit. For orientation: BLI is a label-free optical method that tracks binding on a fibre tip over time.
In test [2] the target is human FcγRIIb expressed on the cell surface (human) (UniProt P31994). Put plainly: cell-based or functional assay.
Test [3] deals with recombinant soluble FcγRIIa-Arg131 (human) (UniProt P12318). Put plainly: BLI (Octet); anti-TNP IgG captured on TNP-BSA-biotin, rsFcγR in solution; global 1:1 Langmuir fit.
recombinant soluble FcγRIIa-Arg131 (human), sequence (P12318 34-217 H167R): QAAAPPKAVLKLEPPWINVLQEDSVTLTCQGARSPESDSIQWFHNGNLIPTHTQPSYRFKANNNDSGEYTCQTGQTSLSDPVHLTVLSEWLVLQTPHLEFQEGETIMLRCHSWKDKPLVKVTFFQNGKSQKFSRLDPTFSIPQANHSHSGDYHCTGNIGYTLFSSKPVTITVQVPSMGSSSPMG

human FcγRIIb expressed on the cell surface (human), sequence (P31994 43-310): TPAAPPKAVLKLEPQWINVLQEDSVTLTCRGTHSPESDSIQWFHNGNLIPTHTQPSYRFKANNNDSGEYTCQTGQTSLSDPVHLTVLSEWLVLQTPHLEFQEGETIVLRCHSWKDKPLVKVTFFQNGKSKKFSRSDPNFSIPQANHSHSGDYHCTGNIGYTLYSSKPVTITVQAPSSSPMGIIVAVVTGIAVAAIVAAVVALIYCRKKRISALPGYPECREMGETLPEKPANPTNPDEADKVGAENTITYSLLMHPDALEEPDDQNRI
recombinant soluble FcγRIIb (human), sequence (P31994 43-217): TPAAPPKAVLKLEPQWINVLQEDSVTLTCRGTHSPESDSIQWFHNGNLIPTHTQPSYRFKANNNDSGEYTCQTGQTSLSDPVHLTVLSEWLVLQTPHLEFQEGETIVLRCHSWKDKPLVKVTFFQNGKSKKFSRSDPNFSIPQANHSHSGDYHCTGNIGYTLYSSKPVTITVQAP

As for “chimeric anti-TNP human IgG2-FEGG (antibody)”, the Ka in test [1] was determined as 400000 M⁻¹.
“chimeric anti-TNP human IgG4-LLGG (antibody)”: in test [2], the % inhibition of basophil activation (whole blood BAT) was determined as 13%.
In test [2], “chimeric anti-TNP human IgG4-FEGG (antibody)” displayed a % inhibition of basophil activation (washed blood BAT) of 42% and a % inhibition of basophil activation (whole blood BAT) of 8%.
On to “chimeric anti-TNP human IgG1-SELF (antibody)”, for which the results for the Ka in test [3] and in test [1] were 3.49e+08 M⁻¹ and 7.4e+07 M⁻¹, respectively.
